Experimental data from the supplement of paper PMC9112550, “Optimization of the antimicrobial peptide Bac7 by deep mutational scanning” (BMC Biology, 2022).

system: Escherichia coli TOP10; experiment: shrunken log2 fold change of peptide-encoding DNA abundance (4.5 h post-induction vs induction); higher = less antimicrobial activity (less host growth inhibition); conditions: time post-induction: 4.5 h; library: site-saturation at positions 5, 18, 19, 20
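Also: peptides expressed intracellularly from a pBAD plasmid library in pooled LB shake-flask culture, induced with 0.3% L-arabinose, DNA abundance read by NGS, three biological replicates, DESeq2 with apeglm shrinkage.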

Row | Sequence | shrunken log2 fold change
1 | RRIRDRPPRLPRPRPRPRMPPRP | 0.156
2 | RRIRDRPPRLPRPRPRPRNQPRP | -0.00575
3 | RRIRDRPPRLPRPRPRPRPCPRP | 0.429
4 | RRIRDRPPRLPRPRPRPRPDPRP | 0.379
5 | RRIRDRPPRLPRPRPRPRPLPRP | 0.39
6 | RRIRDRPPRLPRPRPRPRPQPRP | 1.8
7 | RRIRDRPPRLPRPRPRPRPYPRP | 0.018
8 | RRIRDRPPRLPRPRPRPRRQPRP | 0.161
9 | RRIRDRPPRLPRPRPRPRRRPRP | 0.736
10 | RRIRDRPPRLPRPRPRPRSNPRP | 0.148
11 | RRIRDRPPRLPRPRPRPRTSPRP | 0.353
12 | RRIRDRPPRLPRPRPRPRWAPRP | 0.0236
13 | RRIRDRPPRLPRPRPRPSAFPRP | 0.124
14 | RRIRDRPPRLPRPRPRPSAMPRP | 0.36
15 | RRIRDRPPRLPRPRPRPSCSPRP | -0.253
16 | RRIRDRPPRLPRPRPRPSDAPRP | -0.218
17 | RRIRDRPPRLPRPRPRPSDHPRP | -0.422
18 | RRIRDRPPRLPRPRPRPSFVPRP | -0.0915
19 | RRIRDRPPRLPRPRPRPSHYPRP | -1.14
20 | RRIRDRPPRLPRPRPRPSKPPRP | -0.0858
21 | RRIRDRPPRLPRPRPRPSLCPRP | -0.0148
22 | RRIRDRPPRLPRPRPRPSLIPRP | -0.156
23 | RRIRDRPPRLPRPRPRPSLSPRP | -0.0503
24 | RRIRDRPPRLPRPRPRPSMIPRP | -0.162
25 | RRIRDRPPRLPRPRPRPSMKPRP | -0.198

Row | Sequence | shrunken log2 fold change
26 | RRIRDRPPRLPRPRPRPSMYPRP | -0.105
27 | RRIRDRPPRLPRPRPRPSNHPRP | -0.548
28 | RRIRDRPPRLPRPRPRPSNWPRP | -0.136
29 | RRIRDRPPRLPRPRPRPSPAPRP | 0.0515
30 | RRIRDRPPRLPRPRPRPSPYPRP | -1.07
31 | RRIRDRPPRLPRPRPRPSQIPRP | 0.016
32 | RRIRDRPPRLPRPRPRPSQKPRP | -0.0691
33 | RRIRDRPPRLPRPRPRPSQQPRP | -0.123
34 | RRIRDRPPRLPRPRPRPSQSPRP | -0.119
35 | RRIRDRPPRLPRPRPRPSTIPRP | -0.295
36 | RRIRDRPPRLPRPRPRPSTPPRP | -0.238
37 | RRIRDRPPRLPRPRPRPSTYPRP | -0.273
38 | RRIRDRPPRLPRPRPRPSVRPRP | 0.0325
39 | RRIRDRPPRLPRPRPRPSVYPRP | -0.404
40 | RRIRDRPPRLPRPRPRPSWGPRP | 0.0384
41 | RRIRDRPPRLPRPRPRPSYNPRP | -0.285
42 | RRIRDRPPRLPRPRPRPTAFPRP | 0.231
43 | RRIRDRPPRLPRPRPRPTAVPRP | 0.421
44 | RRIRDRPPRLPRPRPRPTCGPRP | 1.11
45 | RRIRDRPPRLPRPRPRPTDHPRP | -0.0425
46 | RRIRDRPPRLPRPRPRPTDPPRP | 0.0862
47 | RRIRDRPPRLPRPRPRPTGTPRP | 0.0829
48 | RRIRDRPPRLPRPRPRPTHEPRP | 1.09
49 | RRIRDRPPRLPRPRPRPTIHPRP | -0.128
50 | RRIRDRPPRLPRPRPRPTKLPRP | 0.0975

Row | Sequence | shrunken log2 fold change
51 | RRIRDRPPRLPRPRPRPTLIPRP | 0.0896
52 | RRIRDRPPRLPRPRPRPTLRPRP | 0.129
53 | RRIRDRPPRLPRPRPRPTNNPRP | 0.0553
54 | RRIRDRPPRLPRPRPRPTQQPRP | 0.248
55 | RRIRDRPPRLPRPRPRPTVNPRP | 0.0689
56 | RRIRDRPPRLPRPRPRPVAFPRP | 0.589
57 | RRIRDRPPRLPRPRPRPVCHPRP | -0.0164
58 | RRIRDRPPRLPRPRPRPVDKPRP | -0.01
59 | RRIRDRPPRLPRPRPRPVDNPRP | 0.0262
60 | RRIRDRPPRLPRPRPRPVEDPRP | 0.429
61 | RRIRDRPPRLPRPRPRPVFCPRP | 0.0325
62 | RRIRDRPPRLPRPRPRPVGAPRP | 0.825
63 | RRIRDRPPRLPRPRPRPVGGPRP | 2.15
64 | RRIRDRPPRLPRPRPRPVHKPRP | -0.233
65 | RRIRDRPPRLPRPRPRPVISPRP | 0.277
66 | RRIRDRPPRLPRPRPRPVLFPRP | 0.13
67 | RRIRDRPPRLPRPRPRPVLGPRP | 0.162
68 | RRIRDRPPRLPRPRPRPVLYPRP | -0.166
69 | RRIRDRPPRLPRPRPRPVNFPRP | 0.0142
70 | RRIRDRPPRLPRPRPRPVQHPRP | -0.012
71 | RRIRDRPPRLPRPRPRPVSAPRP | 0.666
72 | RRIRDRPPRLPRPRPRPVSMPRP | -0.0171
73 | RRIRDRPPRLPRPRPRPVSYPRP | -0.0715
74 | RRIRDRPPRLPRPRPRPVTHPRP | -0.0987
75 | RRIRDRPPRLPRPRPRPVTKPRP | -0.173
